Laboratory results published in the supplement of paper PMC11246515.
± gives the standard deviation of the averaged measurements.

Assay: total protein half-life in vivo (active degradation + dilution); higher = more stable protein
[1] = E. coli NCM3722 delta-clpP, growth: N-lim chemostat, doubling time 6 h
[2] = E. coli NCM3722 delta-hslV, growth: N-lim chemostat, doubling time 6 h
[3] = E. coli NCM3722 delta-lon, growth: N-lim chemostat, doubling time 6 h
[4] = E. coli NCM3722 delta-smpB, growth: N-lim chemostat, doubling time 6 h
[5] = wild type E. coli NCM3722, growth: C-lim chemostat, doubling time 3 h
[6] = wild type E. coli NCM3722, growth: C-lim chemostat, doubling time 6 h
[7] = wild type E. coli NCM3722, growth: C-lim chemostat, doubling time 12 h
[8] = wild type E. coli NCM3722, growth: N-lim chemostat, doubling time 12 h
[9] = wild type E. coli NCM3722, growth: P-lim chemostat, doubling time 6 h
[10] = wild type E. coli NCM3722, growth: P-lim chemostat, doubling time 12 h
[11] = E. coli NCM3722 delta-clpP delta-lon delta-hslV, growth: N-lim chemostat, doubling time 6 h
[12] = wild type E. coli NCM3722, growth: N-lim chemostat, doubling time 6 h

Row | Sequence | total protein half-life in vivo [1] [h] | total protein half-life in vivo [2] [h] | total protein half-life in vivo [3] [h] | total protein half-life in vivo [4] [h] | total protein half-life in vivo [5] [h] | total protein half-life in vivo [6] [h] | total protein half-life in vivo [7] [h] | total protein half-life in vivo [8] [h] | total protein half-life in vivo [9] [h] | total protein half-life in vivo [10] [h] | total protein half-life in vivo [11] [h] | total protein half-life in vivo [12] [h]
1 | MRHSVLFATAFATLISTQTFAADLPGKGITVNPVQSTITEETFQTLLVSRALEKLGYTVNKPSEVDYNVGYTSLASGDATFTAVNWTPLHDNMYEAAGGDKKFYREGVFVNGAAQGYLIDKKTADQYKITNIAQLKDPKIAKLFDTNGDGKADLTGCNPGWGCEGAINHQLAAYELTNTVTHNQGNYAAMMADTISRYKEGKPVFYYTWTPYWVSNELKPGKDVVWLQVPFSALPGDKNADTKLPNGANYGFPVSTMHIVANKAWAEKNPAAAKLFAIMQLPVADINAQNAIMHDGKASEGDIQGHVDGWIKAHQQQFDGWVNEALAAQK [P0AFM2] | 4.96 ± 0.067 | 6.88 ± 1.4 | 5.41 | 5.41 ± 0.17 | 3.5 ± 0.29 | 6.36 | 5.21 | 11.2 | 6.38 | 13.1 | – | –
2 | MRIEEDLKLGFKDVLIRPKRSTLKSRSDVELERQFTFKHSGQSWSGVPIIAANMDTVGTFSMASALASFDILTAVHKHYSVEEWQAFINNSSADVLKHVMVSTGTSDADFEKTKQILDLNPALNFVCIDVANGYSEHFVQFVAKAREAWPTKTICAGNVVTGEMCEELILSGADIVKVGIGPGSVCTTRVKTGVGYPQLSAVIECADAAHGLGGMIVSDGGCTTPGDVAKAFGGGADFVMLGGMLAGHEESGGRIVEENGEKFMLFYGMSSESAMKRHVGGVAEYRAAEGKTVKLPLRGPVENTARDILGGLRSACTYVGASRLKELTKRTTFIRVQEQENRIFNNL | 4.46 ± 0.16 | 4.34 ± 0.1 | 5.46 ± 0.17 | 4.22 ± 0.21 | 2.77 ± 0.19 | 6.13 ± 0.25 | 9.9351 ± 0.0054 | 7.56 ± 0.75 | 6.2 ± 0.3 | 11 ± 0.55 | 6.23 ± 0.89 | 4.71 ± 0.14
3 | MRIFVYGSLRHKQGNSHWMTNAQLLGDFSIDNYQLYSLGHYPGAVPGNGTVHGEVYRIDNATLAELDALRTRGGEYARQLIQTPYGSAWMYVYQRPVDGLKLIESGDWLDRDK [P0AE48] | 4.63 ± 0.19 | 4.95 ± 0.15 | 5.345 ± 0.014 | 5 ± 0.3 | 2.57 ± 0.21 | 5.316 ± 0.012 | 8.87 ± 0.3 | 7.76 ± 0.7 | 5.27 ± 0.36 | 11.5 ± 1.6 | 5.12 ± 0.42 | 4.49 ± 0.61
4 | MRIVTAAVMASTLAVSSLSHAAEVGSGDNWHPGEELTQRSTQSHMFDGISLTEHQRQQMRDLMQQARHEQPPVNVSELETMHRLVTAENFDENAVRAQAEKMANEQIARQVEMAKVRNQMYRLLTPEQQAVLNEKHQQRMEQLRDVTQWQKSSSLKLLSSSNSRSQ [P0AE85] | 4.81 | 1.65 | > 8 | 2.394 ± 0.017 | – | 2.391 ± 0.0025 | – | 3.54 ± 0.086 | – | 2.99 | 2.56 ± 0.11 | –
5 | MRKFTLNIFTLSLGLAVMPMVEAAPTAQQQLLEQVRLGEATHREDLVQQSLYRLELIDPNNPDVVAARFRSLLRQGDIDGAQKQLDRLSQLAPSSNAYKSSRTTMLLSTPDGRQALQQARLQATTGHAEEAVASYNKLFNGAPPEGDIAVEYWSTVAKIPARRGEAINQLKRINADAPGNTGLQNNLALLLFSSDRRDEGFAVLEQMAKSNAGREGASKIWYGQIKDMPVSDASVSALKKYLSIFSDGDSVAAAQSQLAEQQKQLADPAFRARAQGLAAVDSGMAGKAIPELQQAVRANPKDSEALGALGQAYSQKGDRANAVANLEKALALDPHSSNNDKWNSLLKVNRYWLAIQQGDAALKANNPDRAERLFQQARNVDNTDSYAVLGLGDVAMARKDYPAAERYYQQTLRMDSGNTNAVRGLANIYRQQSPEKAEAFIASLSASQRRSIDDIERSLQNDRLAQQAEALENQGKWAQAAALQRQRLALDPGSVWITYRLSQDLWQAGQRSQADTLMRNLAQQKSNDPEQVYAYGLYLSGHDQDRAALAHINSLPRAQWNSNIQELVNRLQSDQVLETANRLRESGKEAEAEAMLRQQPPSTRIDLTLADWAQQRRDYTAARAAYQNVLTREPANADAILGLTEVDIAAGDKAAARSQLAKLPATDNASLNTQRRVALAQAQLGDTAAAQRTFNKLIPQAKSQPPSMESAMVLRDGAKFEAQAGDPTQALETYKDAMVASGVTTTRPQDNDTFTRLTRNDEKDDWLKRGVRSDAADLYRQQDLNVTLEHDYWGSSGTGGYSDLKAHTTMLQVDAPYSDGRMFFRSDFVNMNVGSFSTNADGKWDDNWGTCTLQDCSGNRSQSDSGASVAVGWRNDVWSWDIGTTPMGFNVVDVVGGISYSDDIGPLGYTVNAHRRPISSSLLAFGGQKDSPSNTGKKWGGVRADGVGLSLSYDKGEANGVWASLSGDQLTGKNVEDNWRVRWMTGYYYKVINQNNRRVTIGLNNMIWHYDKDLSGYSLGQGGYYSPQEYLSFAIPVMWRERTENWSWELGASGSWSHSRTKTMPRYPLMNLIPTDWQEEAARQSNDGGSSQGFGYTARALLERRVTSNWFVGTAIDIQQAKDYAPSHFLLYVRYSAAGWQGDMDLPPQPLIPYADW | 6.7 ± 0.36 | 6.74 ± 0.87 | 6.13 ± 0.61 | 5.66 ± 0.14 | 3.2 ± 0.16 | 6.39 ± 0.4 | 11.2 ± 1.1 | 13.8 ± 0.91 | 6.24 ± 0.29 | 13.3 ± 0.38 | 6.16 ± 0.12 | 6.4455 ± 0.00019
